Square brackets hold non-standard residues; d marks the D form. Ends that are not written are not given here. * marks the point of attachment. 5‑TMR = 5'-carboxytetramethylrhodamine, CN(C)c1ccc2c(-c3ccc(C(=O)*)cc3C(=O)[O-])c3ccc(=[N+](C)C)cc-3oc2c1; rhodamine X acetamide = R492, linked via the cysteine sulfhydryl; Fmoc = O=C(OCC1c2ccccc2-c2ccccc21)*; Nle = CCCC[C@H](N)C(=O)O; Aib = CC(C)(N)C(=O)O; Ahx = NCCCCCC(=O)O
Tests used:
[1] = target: elastase; experiment: cell-based or functional assay
[2] = target: T1, CPP32 protease (human (Jurkat cells), UniProt P42574 29-277); experiment: cell-based or functional assay
T1 sequence (looked up): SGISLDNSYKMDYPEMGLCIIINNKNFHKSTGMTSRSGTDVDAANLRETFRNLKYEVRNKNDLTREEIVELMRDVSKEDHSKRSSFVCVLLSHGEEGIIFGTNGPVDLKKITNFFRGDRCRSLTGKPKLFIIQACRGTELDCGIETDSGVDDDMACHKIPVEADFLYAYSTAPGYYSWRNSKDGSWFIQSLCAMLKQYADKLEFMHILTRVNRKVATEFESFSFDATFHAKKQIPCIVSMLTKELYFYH

How did the “increase in fluorescence at 589 nm after treatment with elastase” value [1] turn out when {5‑TMR}-DAIP[Nle]SIPC(rhodamine X acetamide) [D-NorFES-A protease indicator, F1-Asp-Ala-Ile-Pro-Nle-Ser-Ile-Pro-Cys-F2] was run?
The value was greater than 10 fold.

And the “increase in fluorescence within the first 1000 seconds of exposure to elastase” value [1]?
Its value is greater than 5 fold.

Fmoc-K(carboxytetramethylrhodamine)D[Aib][Ahx]GDEVDGIDG[Ahx]PK(carboxytetramethylrhodamine)GY [Fm-CGD2D, Fm-K[F1]DBJGDEVDGIDGJPK[F1]GY (compound 11 of Table 12)] was tested. Which “increase in fluorescence intensity in anti-Fas-activated Jurkat cells (flow cytometry)” value [2] did it give?
The value was no more than 10 fold.
